Data reported in JP2012157315A.

Molecular target: EGFR (ミズーリ州セントルイス、シグマ社) (UniProt P00533)
Assay: SPR (BIACORE X), fusion protein amine-coupled to the chip, 10-100 nM EGFR in flow

B1: celB+Lama glama由来の抗EGFRのVHH抗体+Hisタグ融合タンパク質 (VHH, not shown: small tags and cut ends)
chain: QQVGTTADAHPRLTTYKCTSQNGCTRQNTSLVLDAATHFIHKKGTQTSCTNSNGLDTAICPDKQTCADNCVVDGITDYASYGVQTKNDTLTLQQYLQTGNATKSLSPRVYLLAEDGENYSMLKLLNQEFTFDVDASTLVCGMNGALYLSEMEASGGKSSLNQAGAKYGTGYCDAQCYTTPWINGEGNTESVGSCCQEMDIWEANARATGLTPHPCNTTGLYECSGSGCGDSGVCDKAGCGFNPYGLGAKDYYGYGLKVNTNETFTVVTQFLTNDNTTSGQLSEIRRLYIQNGQVIQNAAVTSGGKTVDSITKDFCSGEGSAFNRLGGLEEMGHALGRGMVLALSIWNDAGSFMQWLDGGSAGPCNATEGNPALIEKLYPDTHVKFSKIRWGDIGSTYRHQVQLVESGGGLVQAGDSLRLSCVDSGRDFSDYVMGWFRQAPGKEREFVAAISRNGITTRYADSVKGRFTISRDNDKNTVYLQMNSLKPEDTAVYYCATNSAGTYVSPRSRDYDGWGQGTQVTVSS
Kd: 14.7 nM
